Target: recombinant bovine respiratory syncytial virus fusion (F) protein, purified (bovine respiratory syncytial virus, UniProt P22167 26-513)
Assay: SPR

B1: hybrid Fab B4* (B4 HC/B13 LC) (Fab, V domains shown)
VH: QVQLQESGPSLVKPSQTLSLTCTVSGFSLSSYSVSWVRQAPGKTLEWLGDASNGGIIYYNPALKSRLGITRDNSKSQVSLSLNTITPEDTATYYCAKCSVGDSGSYACTGRKGEYVDAWGQGLLVTVSS
VL: QAVLTQPPSVSGSLGQRVSITCSGSSDNIGIFAVGWYQQVPGSGLRTIIYGNTKRPSGVPDRFSGSKSGNTATLTINSLQAEDEADYFCVCGESKSATPVFGGGTTLTVL
Kd: ~12 µM

— paper PMC6677920 (2019)
